Test results reported in publication PMC8563870, “Development of a nanobody-based immunoassay for the sensitive detection of fibrinogen-like protein 1” (Acta Pharmacologica Sinica, 2021).

B1: FGL1-Fc fusion protein (human fibrinogen-like protein 1 with C-terminal human IgG1 Fc and Flag tag) (Fc fusion, UniProt Q08830 23-306, looked up)
chain: LEDCAQEQMRLRAQVRLLETRVKQQQVKIKQLLQENEVQFLDKGDENTVIDLGSKRQYADCSEIFNDGYKLSGFYKIKPLQSPAEFSVYCDMSDGGGWTVIQRRSDGSENFNRGWKDYENGFGNFVQKHGEYWLGNKNLHFLTTQEDYTLKIDLADFEKNSRYAQYKNFKVGDEKNFYELNIGEYSGTAGDSLAGNFHPEVQWWASHQRMKFSTWDRDHDNYEGNCAEEDQSGWWFNRCHSANLNGVYYSGPYTAKTDNGIVWYTWHGWWYSLKSVVMKIRPND
notes: signal peptide in the construct; human fibrinogen-like protein 1 (FGL1), amino acids 1-306 of NCBI NM_004467, called full-length in the methods; the results say that the protein has 312 amino acids; A 3C protease site and a linker (GGGGS) stand between FGL1 and the Fc, and the Flag tag follows the Fc; The Fc may itself hold the dimer together; For SPR and the ELISAs the Fc was cut off with 3C …

How the values were obtained:
LAG-3 (Homo sapiens) = LAG-3 (Homo sapiens) (UniProt P18627); conditions: cited from earlier work
Sequence of LAG-3 (Homo sapiens) (P18627 23-450): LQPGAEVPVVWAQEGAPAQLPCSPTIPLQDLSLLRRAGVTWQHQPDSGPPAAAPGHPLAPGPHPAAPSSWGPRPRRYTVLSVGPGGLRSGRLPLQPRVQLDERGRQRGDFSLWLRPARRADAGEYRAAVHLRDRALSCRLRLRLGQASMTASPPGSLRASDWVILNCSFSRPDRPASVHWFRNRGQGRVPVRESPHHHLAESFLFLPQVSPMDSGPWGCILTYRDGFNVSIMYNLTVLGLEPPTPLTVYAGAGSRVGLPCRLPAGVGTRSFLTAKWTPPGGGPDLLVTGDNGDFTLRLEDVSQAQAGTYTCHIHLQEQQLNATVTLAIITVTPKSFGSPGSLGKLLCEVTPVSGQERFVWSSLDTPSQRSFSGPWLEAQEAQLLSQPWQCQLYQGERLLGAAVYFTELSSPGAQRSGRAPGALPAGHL

[1] = molecular target: the molecule itself; test: SEC; Superdex 200, 20 mM Tris pH 8.0, 150 mM NaCl; FGL1-Fc after anti-Flag M2 affinity; one aggregate peak and two FGL1 peaks, the peak at approximately 66 mL taken as the homodimer

| Molecule | Kd (LAG-3 (Homo sapiens)) [nM] | stoichiometry N [1] |
| --- | --- | --- |
| FGL1 (from UniProt Q08830) | 1.5 | – |
| B1 | – | 2 |
